From article doi:10.1101/2020.12.03.410779 (bioRxiv, 2020) come the findings set out here.

The assay deals with PDZ domain of mouse SNX27 (mouse, UniProt Q3UHD6 41-134). The assay can be described thus: ITC.

For the molecule QEEWETVM [PTHR_(586-593) cargo peptide], binding was put at a Kd of 700 nM.
